This note sets out measurements from US11674967B2, “Method of identifying potential inhibitors of APO TNFα trimers” (UCB BIOPHARMA SRL, priority 2015, dated 2023).

What is called Kd is a measure of binding affinity in units of concentration.

For test [1], the target named is T1, TNFα (Homo sapiens, UniProt P01375). As to the kind of experiment: SPR on Biacore 4000 against immobilised soluble TNFα. Format: binding. The settings on record: up to 100 μM. The procedure:
In another experiment, BIO8898 was tested against the immobilised soluble form of CD40L and the soluble form of TNFα by SPR on a Biacore 4000 machine.
(Surface plasmon resonance follows binding to a sensor surface in real time, without labels.)

Test [2] addresses human TNFα complexed with compound (15) (Homo sapiens, UniProt P01375). As to the kind of experiment: Size exclusion chromatography of Fab with human TNFα complexed with compound (15). In kind it is binding. The settings on record: mouse Fab fragments. In general terms: In gel filtration, larger molecules generally elute earlier.
Test [3] concerns the target T1, TNFα. As to the kind of experiment: BIAcore antibody binding with human TNFα +/- compound. Also noted: made in house. How it is done:
(§1) Surface plasmon resonance was performed at 25° C. using a BIAcore T200 (GE Healthcare). Anti-Mouse Fc (Jackson 115-006-071) was immobilised on a […] Sensor Chip (GE Healthcare) via amine coupling chemistry to a capture level of 6000 response units. HBS-EP buffer (10 mM HEPES pH 7.4, 0.15 M NaCl, 3 mM EDTA, 0.05% (v/v) surfactant P20—GE Healthcare)+1% DMSO was used as the running buffer.
(§2) The surface was regenerated at a flow-rate of 10 μl/min by a 60 s injection of 40 mM HCl×2 and a 30 s 5 mM NaOH. Double referenced background subtracted binding curves were analysed using the T200 Evaluation software (version 1.0) following standard procedures. Kinetic parameters were determined from the fitting algorithm.

The target of test [4] is T2, Mouse TNFα (Mus musculus, UniProt P06804).
T2 construct: made in house
T2 sequence (P06804 80-235 limits assumed): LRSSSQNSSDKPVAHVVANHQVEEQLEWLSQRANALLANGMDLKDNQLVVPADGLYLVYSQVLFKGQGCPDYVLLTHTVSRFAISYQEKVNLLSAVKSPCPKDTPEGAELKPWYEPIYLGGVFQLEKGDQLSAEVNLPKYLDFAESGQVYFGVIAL
As to the kind of experiment: BIAcore antibody binding with mouse TNFα +/- compound. How it is done:
as §1, §2

T1 sequence (P01375 77-233 limits assumed): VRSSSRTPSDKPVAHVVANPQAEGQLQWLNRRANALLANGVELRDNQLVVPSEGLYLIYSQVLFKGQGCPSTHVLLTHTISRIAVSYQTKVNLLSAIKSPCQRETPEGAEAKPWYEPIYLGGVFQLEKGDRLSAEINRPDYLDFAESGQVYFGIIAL
Chain of human TNFα complexed with compound (15) (P01375 77-233 limits assumed, one chain of several): as the sequence (P01375 77-233 limits assumed) above

Consider `O=C(NCc1cccc(-c2ccccc2)c1)c1cc(-c2cc(C(=O)NC(C(=O)O)C3CCCCC3)nc(C(=O)N3CCCC3CN3CCCC3)c2)cc(C(=O)N2CCCC2CN2CCCC2)n1` (stereo not shown) [BIO8898], for which, in test [1], the “binding to TNFα” value was “no binding was detected”.

B1: CA185_01979: conformation-selective antibody, light chain SEQ ID NO: 26, heavy chain SEQ ID NO: 27 (antibody)
heavy: EVHLVESGPGLVKPSQSLSLTCSVTGYSITNSYWDWIRKFPGNKMEWMGYINYSGSTGYNPSLKSRISISRDTSNNQFFLQLNSITTEDTATYYCARGTYGYNAYHFDYWGRGVMVTVSSAKTTPPSVYPLAPGSAAQTNSMVTLGCLVKGYFPEPVTVTWNSGSLSSGVHTFPAVLQSDLYTLSSSVTVPSSTWPSETVTCNVAHPASSTKVDKKIVPRDCGCKPCICTVPEVSSVFIFPPKPKDVLTITLTPKVTCVVVDISKDDPEVQFSWFVDDVEVHTAQTQPREEQFNSTFRSVSELPIMHQDWLNGKEFKCRVNSAAFPAPIEKTISKTKGRPKAPQVYTIPPPKEQMAKDKVSLTCMITDFFPEDITVEWQWNGQPAENYKNTQPIMDTDGSYFVYSKLNVQKSNWEAGNTFTCSVLHEGLHNHHTEKSLSHSPGK
light: DIQMTQSPASLSASLEEIVTITCQASQDIGNWLSWYQQKPGKSPHLLIYGTTSLADGVPSRFSGSRSGTQYSLKISGLQVADIGIYVCLQAYSTPFTFGSGTKLEIKRTDAAPTVSIFPPSSEQLTSGGASVVCFLNNFYPKDINVKWKIDGSERQNGVLNSWTDQDSKDSTYSMSSTLTLTKDEYERHNSYTCEATHKTSTSPIVKSFNRNEC
modifications: 1979 HC mIgG1 full; 1979 LC Kappa full
B1: the “stoichiometry of Fab binding to trimer-compound complex” value in test [2] is 1 Fab:1 TNFα trimer. Besides, the ka worked out at 470000 M⁻¹ s⁻¹ in test [3] (Human TNFα + compound (15)); 570000 M⁻¹ s⁻¹ in test [3] (Human TNFα + compound (39)); 110000 M⁻¹ s⁻¹ in test [3] (Human TNFα apo); 160000 M⁻¹ s⁻¹ in test [4] (Mouse TNFα + compound (15)); 190000 M⁻¹ s⁻¹ in test [4] (Mouse TNFα + compound (39)); 72000 M⁻¹ s⁻¹ in test [4] (Mouse TNFα apo). Also, the kd was found to be 1.6e-05 s⁻¹ in test [3] (Human TNFα + compound (15)); 3.3e-05 s⁻¹ in test [3] (Human TNFα + compound (39)); 0.00071 s⁻¹ in test [3] (Human TNFα apo); 6.3e-05 s⁻¹ in test [4] (Mouse TNFα + compound (15)); 3.5e-05 s⁻¹ in test [4] (Mouse TNFα + compound (39)); 0.002 s⁻¹ in test [4] (Mouse TNFα apo). Also, the values for the Kd in test [4] (Mouse TNFα + compound (15)) and in test [4] (Mouse TNFα apo) were 0.38 nM and 27 nM, respectively.
